Results as given in patent US10590386B2, “Methods and compositions for preparing cardiomyocytes from stem cells and uses thereof” (Insitute of Biophysics, Chinese Academy of Sciences, priority 2010, dated 2020).
Entries after “also recorded” stand apart in the source; their conditions may differ. Where two headings read alike, the source gives them in different places.

B1: Noggin: BMP antagonist protein, added at 250 ng/ml (protein, UniProt Q13253 28-232, looked up)
Noggin: QHYLHIRPAPSDNLPLVDLIEHPDPIFDPKEKDLNETLLRSLLGGHYDPGFMATSPPEDRPGGGGGAAGGAEDLAELDQLLRQRPSGAMPSEIKGLEFSEGLAQGKKQRLSKKLRRKLQMWLWSQTFCPVLYAWNDLGSRFWPRYVKVGSCFSKRSCSVPEGMVCKPSKSVHLTVLRWRCQRRGGQRCGWIPIQYPIISECKCSC

Tests used:
Type in all cases: cell-based, human
[1] = tested on: hESC line H7; assay: Immunostaining and Western blotting of cardiac markers in 60 day-old differentiated cultures
Protocol: (§1) Undifferentiated hESC line H7 from the WiCell Research Institute was maintained on matrigel-coated plates, as previously described^37. In the basic cardiac induction protocol (BP), undifferentiated hESCs were seeded on gelatin-coated plates at a density of 1-5×10^5 cells/cm^2 and cultured with mouse embryonic fibroblast conditioned medium for 3 days until fully confluent. To initiate cell differentiation, the medium was changed to RPMI1640, supplemented with B27 (Invitrogen). Cells were treated with 25 ng/ml BMP4 and 6 ng/ml bFGF at day 1, 100 ng/ml activin A at day 2, and 200 ng/ml DKK1 (R&D Systems) from day 6 to day 11. The medium was changed every 3 days after day 11 (FIG. 1). 250 ng/ml Noggin, 1 μM RA (Sigma) or 1 μM RAi were added to the cell culture at the times specified in FIGS. 1A-C. Spontaneous beating clusters were typically observed at days 10 to 11. Cardiac differentiation efficiency was analyzed on day 14 with CTNT antibody staining and flow cytometry.
Sixty (60) day-old differentiated cultures were digested with 0.25% trypsin-EDTA, and the cells were plated on gelatin-coated coverslips for 5 days, allowing full attachment to occur. Cells were then fixed in 4% paraformaldehyde, and incubated with primary antibodies of mouse anti-human CTNT (R&D systems), mouse anti-human α-Actinin (Sigma), mouse anti-human β-MHC (ATCC), mouse anti-human MLC-2a (Synaptic Systems), or rabbit anti-human MLC-2v (ProteinTech Group). Goat anti-mouse secondary antibody conjugated with DyLight 488 (Santa Cruz Biotechnology) and goat anti-rabbit secondary antibody conjugated with Tritc (Santa Cruz Biotechnology) were used as needed. After the nuclei were counterstained with 4′,6-diamidino-2-phenylindole (DAPI, Sigma), immunofluorescence images were visualized and recorded using an Olympus microscope system X51 or Olympus LSCM FV1000.
One well of a 24-well plate of 60 day-old differentiated cells was lysed with RIPA lysis buffer (Biomiga) for Western blotting. […]

[2] = tested on: hESC line H7; assay: Cardiac differentiation efficiency of hESCs, CTNT antibody staining and flow cytometry on day 14
Protocol: as §1
Differentiated cell clusters were dissociated into single cells with 0.25% trypsin-EDTA, which were then fixed and stained with anti-human CTNT antibody (R&D Systems) and goat anti-mouse FITC-conjugated secondary antibody (Santa Cruz) in PBS plus 0.5% BSA and 0.1% saponin (Sigma) at 4° C. Stained cells were kept in 4% paraformaldehyde for subsequent quantitative analysis. Data were collected using FACScalibur (Becton Dickinson) and analyzed with FlowJo software (Treestar).

[3] = tested on: hESC-derived cardiomyocytes; assay: Effect of nifedipine on AP duration of hESC-derived cardiomyocytes (patch clamp); conditions: myocytes from Noggin+RA-treated cultures; FIG. 4B right
Protocol: […] to 90 day-old differentiated cultures were washed in a low Ca^2+ solution, and then incubated in an enzyme solution for 20 min at 37° C. The dissociation was completed in KB solution by gently shaking for 40 min at room temperature. The isolated cells were resuspended in DMEM plus 10% FBS, and transferred on 0.1% gelatin-coated glass coverslips, and then kept in an incubator at 37° C., 5% CO2. The composition of the low Ca^2+ solution was (in mM):120 NaCl, 5.4 KCl, 5 MgSO4, 5 Na pyruvate, 20 glucose, 20 taurine, 10 HEPES. The pH was adjusted to 7.3 with NaOH. KB solution contained (in mM): 85 KCl, 30 K2HPO4, 5 MgSO4, 1 EGTA, 2 Na2ATP, 5 Na pyruvate, 20 glucose, 20 taurine, 5 creatine, adjusted to pH 7.3 with KOH.
Action potentials of cardiomyocytes were recorded in a whole-cell patch clamp configuration, using an Axon 200B amplifier (Axon Instruments) at room temperature. Data were digitized at 20 kHz and filtered at 2 kHz, and were analyzed by PClamp 9.0. Patch pipettes (2-4MΩ resistance) were filled with an intracellular solution containing (in mM) 50 KCl, 60 K-Aspartate, 1 MgCl2, 3 Na2ATP, 10 EGTA, 10 mM HEPES, adjusted to pH 7.3 with KOH. Normal Tyrode's solution was used as an extracellular solution and contained (in mM) 140 NaCl, 5 KCl, 1 CaCl2, 1 MgCl2, 10 glucose, 10 HEPES, adjusted to pH 7.4 with NaOH.

[4] = tested on: BMP signaling; assay: Western blot for phosphorylated Smad1,5,8; conditions: data not shown
Protocol: One well of a 24-well plate of 60 day-old differentiated cells was lysed with RIPA lysis buffer (Biomiga) for Western blotting. Blots were incubated with mouse anti-human CTNT, mouse anti-human β-MHC, rabbit anti-human MLC-2v, goat anti-ANF, mouse anti-human MLC-2a, mouse anti-human β-actin, rabbit anti-phospho smad1/5/8 and rabbit anti-smad1/5/8 separately, and then with HRP-conjugated goat anti-mouse or anti-rabbit antibody.

| Molecule | β-MHC expression (western blots) ([1]; 60 day old RA and RAi treated cultures (with Noggin), FIG. 6) | effect on cardiac differentiation efficiency / cardiogenesis of hESCs (summary statement) [2] | effect on cardiac differentiation ([2]; RAi added between days 6 to 9, FIG. 1C) | effect on cardiac differentiation efficiency / cardiogenesis of hESCs (summary statement) ([2]; listed as BMS-189453) | effect on duration of atrial-like APs [3] | cTNT positive cells that are also MLC-2v positive ([1]; 60 day old cultures, immunostaining, FIG. 5) | MLC-2v expression (Western blotting) ([1]; 60 day-old cultures, FIG. 3C, FIG. 5) | effect on cardiac differentiation ([2]; Noggin present between days 2 and 3, FIG. 1B) | effect on cardiac differentiation ([2]; Noggin present between days 2.5 and 4.5, FIG. 1B) | effect on cardiac differentiation ([2]; Noggin present between days 4 and 5, FIG. 1B) | differentiation efficiency (CTNT+ cells, flow cytometry) ([2]; day 14 cultures, Noggin on days 4 and 5, RAi from days 6 to 8, mean±s.e.m, FIG. 1D) | activities of BMP signaling (phosphorylated Smad1,5,8) [4] |
| --- | --- | --- | --- | --- | --- | --- | --- | --- | --- | --- | --- | --- |
| CC1(C)CC=C(c2ccccc2)c2cc(/C=C/c3ccc(C(=O)O)cc3)ccc21 [RAi, BMS-189453, reference compound] | evenly expressed | significantly promote cardiogenesis | markedly increased | significantly increase |  |  |  |  |  |  |  |  |
| COC(=O)C1=C(C)NC(C)=C(C(=O)OC)C1c1ccccc1[N+](=O)[O-] [nifedipine] |  |  |  |  | No significant effect |  |  |  |  |  |  |  |
| B1 |  | significantly increase; also recorded: significantly promote cardiogenesis |  |  |  | about 35% | weak MLC-2v expression | slightly repressed | significantly promoted | Highest cardiac differentiation efficiencies | 50%±3.06% | reduced the activities of BMP signaling |
